We go through eight molecules from article PMC8043444 (bioRxiv, 2021).

By Kd is commonly meant the equilibrium constant for the complex coming apart. Lower therefore signals a tighter complex.

Assay [1] addresses T1, SARS-CoV-2 RBD WT for SPR binding assays (SARS-CoV-2, UniProt P0DTC2). The assay can be described thus: SPR. On the technique in general: Surface plasmon resonance follows binding to a sensor surface in real time, without labels.
The target of assay [2] is T1, SARS-CoV-2 RBD WT for SPR binding assays. In words: cell-based or functional assay.
The target in assay [3] is SARS-CoV-2 RBD WT for crystallization (SARS-CoV-2, UniProt P0DTC2, deglycosylated by overnight incubation with EndoH glycosidase). In words: crystal structure.

B1: S2D106 IgG1 (LS) (antibody, V domains shown)
VH: EVQLVQSGAEVKKPGSSVKVSCKASGGPFSSSAISWVRQAPGQGLEWMGGIIPMVGTANYAQKFQGRVTITADESTSTAYMELSSLRSEDTAVYYCARDSRYCSGGSCYSVWFDPWGQGTLVTVSS
VL: not shown
For the molecule B1, the Kd in assay [1] stood at 40 pM. Besides, the “neutralisation of authentic SARS-CoV-2-Nluc on Vero E6 cells (IF/luc), IC90” value (from here on “neutralisation”) in assay [2] amounted to 23.6.

B2: S2D106 Fab (Fab, V domains shown)
VH: EVQLVQSGAEVKKPGSSVKVSCKASGGPFSSSAISWVRQAPGQGLEWMGGIIPMVGTANYAQKFQGRVTITADESTSTAYMELSSLRSEDTAVYYCARDSRYCSGGSCYSVWFDPWGQGTLVTVSS
VL: not shown
On to B2, for which binding in assay [1] was characterised by a dissociation constant (Kd) of 50 pM.

B3: S2E12 IgG1 (LS) (antibody, V domains shown)
VH: not shown
VL: DIVLTQTPGTLSLSPGERATLSCRASQSVSSSYLAWYQQKPGQAPRLLIYGASSRATGIPDRFSGSGSGTDFTLTISRLEPEDFAVYYCQQYVGLTGWTFGQGTKVEIK
As to B3, the dissociation constant Kd in assay [1] is 700 pM. Also, in assay [2], the “neutralisation” value was determined as 14.

B4: S2X35 IgG1 (LS) (antibody, V domains shown)
VH: QVQLVQSGAEVKKPGASVKVSCKASGYTFTNYGISWVRQAPGQGLEWMGWISAYKGNTNYAQKLQGRVTMTTDTSTSTAYMELRSLRSDDTAVYYCARPDYQVLGYDFWIGYYGMDVWGQGTTVIVSS
VL: QSVLTQPPSVSGAPGQRVTISCTGSSSNIGAGYDVHWYQQLPGTAPKLLIYGNTNRPSGVPDRFSGSKSGTSASLAITGLQAEDEADYYCQSYDSSLSGSEVVFGGGTKLTVL
The molecule B4 registered a Kd in assay [1] of 60 pM. Further, the “neutralisation” value in assay [2] turned out to be 592.

B5: S2X259 Fab (Fab, V domains shown)
VH: QVQLVQSGAEVKKPGSSVKVSCKASGGIFNTYTISWVRQAPGQGLEWMGRIILMSGMANYAQKIQGRVTITADKSTSTAYMELTSLRSDDTAVYYCARGFNGNYYGWGDDDAFDIWGQGTLVTVYS
VL: QTVLTQPPSVSGAPGQRVTISCTGSNSNIGAGYDVHWYQQLPGTAPKLLICGNSNRPSGVPDRFSGSKSGTSASLAITGLQAEDEADYYCQSYDSSLSGPNWVFGGGTKLTVL
As to B5, in assay [3], the binding result is “binds”.

B6: S2H97 IgG1 (LS) (antibody, V domains shown)
VH: QVRLVQSGAEVKKSGESLKISCKGSGYSFTSYWIGWVRQMPGKGLEWMGIIYPGDSDTRYSPSFQGQVTISADKSISTVYLQWSSLKASDTAMYYCARQWSHYTYDYYYWGQGTLVTISS
VL: QSVLTQPASVSGSPGQSITISCTGISSDVGGYNSVSWYQQHPGKAPKLMIYDVTNRPSGVSNRFSGSKSGNTASLTISGLQAEDEADYYCSSYTSSSTPPYVFGTGTKVSVL
B6 gave a dissociation constant (Kd) in assay [1] of 40 pM. For the same molecule, the “neutralisation” value in assay [2] was found to be 3290.

B7: S2H97 Fab (Fab, V domains shown)
VH: QVRLVQSGAEVKKSGESLKISCKGSGYSFTSYWIGWVRQMPGKGLEWMGIIYPGDSDTRYSPSFQGQVTISADKSISTVYLQWSSLKASDTAMYYCARQWSHYTYDYYYWGQGTLVTISS
VL: QSVLTQPASVSGSPGQSITISCTGISSDVGGYNSVSWYQQHPGKAPKLMIYDVTNRPSGVSNRFSGSKSGNTASLTISGLQAEDEADYYCSSYTSSSTPPYVFGTGTKVSVL
As to B7, the affinity in assay [1], expressed as Kd, was 30 pM.

B8: S304 IgG1 (LS) (antibody, V domains shown)
VH: EVQLVESGGGLVQPGGSLRLSCAASGFTFSSYDMHWVRQTTGKGLEWVSTIGTAGDTYYPDSVKGRFTISREDAKNSLYLQMNSLRAGDTAVYYCARGDSSGYYYYFDYWGQGTLLTVSS
VL: DIEMTQSPSSLSAAVGDRVTITCRASQSIGSYLNWYQQKPGKAPKLLIYAASSLQSGVPSRFSGSGSGTDFTLTISSLQPEDFAIYYCQQSYVSPTYTFGPGTKVDIK
In assay [1], B8 returned a Kd of 400 pM.
